Experimental data taken from paper PMC12548473, “Solution structure of the C-terminal domain of the measles virus V protein in its free form and mechanistic analysis of STAT2 targeting” (Journal of Virology, 2025).

Experiments:
[1] = biological target: STAT2 core (Homo sapiens) (UniProt P52630); conditions: cited from earlier work
STAT2-core = biological target: T1, STAT2-core (UniProt P52630 133-679); test: ITC; 250 µM MeV-V_(CT221-299) injected (20 x 2.5 µL) into 35 µM STAT2-core; 20°C; 10 mM HEPES pH 7.4, 150 mM NaCl, 1 mM TCEP; 1:1 binding model; three independent experiments; conditions: both partners purified
T1 construct: source: purified
T1 sequence: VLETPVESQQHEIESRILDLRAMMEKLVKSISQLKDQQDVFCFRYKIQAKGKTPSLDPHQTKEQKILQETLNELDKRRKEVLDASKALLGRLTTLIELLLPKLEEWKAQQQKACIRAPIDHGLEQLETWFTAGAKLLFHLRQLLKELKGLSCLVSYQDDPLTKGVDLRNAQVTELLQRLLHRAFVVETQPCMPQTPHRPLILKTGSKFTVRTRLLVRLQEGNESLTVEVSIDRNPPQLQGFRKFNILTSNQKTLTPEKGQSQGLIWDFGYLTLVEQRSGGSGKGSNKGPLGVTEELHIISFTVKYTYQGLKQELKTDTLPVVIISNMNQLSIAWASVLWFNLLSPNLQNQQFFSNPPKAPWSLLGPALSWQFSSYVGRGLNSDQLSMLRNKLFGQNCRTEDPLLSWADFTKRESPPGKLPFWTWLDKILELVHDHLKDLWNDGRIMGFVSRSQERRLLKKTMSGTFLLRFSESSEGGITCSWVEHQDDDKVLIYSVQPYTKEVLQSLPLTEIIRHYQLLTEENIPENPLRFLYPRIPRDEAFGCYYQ

In the case of MeV-V (from UniProt P0C774), the Kd [1] is listed as 180 nM.

B1: MeV-V_(CT221-299) (measles virus V protein, residues 221-299, containing the C-terminal domain) (domain or fragment)
chain: GPASTSETPIKKGHRREIGLIWNGDRVFIDRWCNPMCSKVTLGTIRARCTCGECPRVCEQCRTDTGVDTRIWYHNLPEIPE
notes: additional Gly and Pro before Ala221, left after HRV-3C protease digestion; 15N- or 13C,15N-labelled for the NMR experiments, unlabelled for ITC; Monomer by SEC; also called MeV-VCT construct; MeV-VCTD; source: E. coli BL21 star (DE3), purified (Glutathione Sepharose 4B, 3C protease elution, HisTrap, HIC, SEC); not shown: GST, N-terminal, cleaved
For B1, the Kd (STAT2-core) was 212 nM, the dH (STAT2-core) was -12.5 kcal/mol and the “stoichiometry N” value (STAT2-core) was 1.17.
